B1: MHV spike ectodomain (S-e), strain A59 (domain or fragment)
chain: YIGDFRCIQLVNSNGANVSAPSISTETVEVSQGLGTYYVLDRVYLNATLLLTGYYPVDGSKFRNLALRGTNSVSLSWFQPPYLNQFNDGIFAKVQNLKTSTPSGATAYFPTIVIGSLFGYTSYTVVIEPYNGVIMASVCQYTICQLPYTDCKPNTNGNKLIGFWHTDVKPPICVLKRNFTLNVNADAFYFHFYQHGGTFYAYYADKPSATTFLFSVYIGDILTQYYVLPFICNPTAGSTFAPRYWVTPLVKRQYLFNFNQKGVITSAVDCASSYTSEIKCKTQSMLPSTGVYELSGYTVQPVGVVYRRVANLPACNIEEWLTARSVPSPLNWERKTFQNCNFNLSSLLRYVQAESLFCNNIDASKVYGRCFGSISVDKFAVPRSRQVDLQLGNSGFLQTANYKIDTAATSCQLHYTLPKNNVTINNHNPSSWNRRYGFNDAGVFGKNQHDVVYAQQCFTVRSSYCPCAQPDIVSPCTTQTKPKSAFVNVGDHCEGLGVLEDNCGNADPHKGCICANNSFIGWSHDTCLVNDRCQIFANILLNGINSGTTCSTDLQLPNTEVVTGICVKYDLYGITGQGVFKEVKADYYNSWQTLLYDVNGNLNGFRDLTTNKTYTIRSCYSGRVSAAFHKDAPEPALLYRNINCSYVFSNNISREENPLNYFDSYLGCVVNADNRTDEALPNCDLRMGAGLCVDYSKSRRAHRSVSTGYRLTTFEPYTPMLVNDSVQSVDGLYEMQIPTNFTIGHHEEFIQTRSPKVTIDCAAFVCGDNTACRQQLVEYGSFCVNVNAILNEVNNLLDNMQLQVASALMQGVTISSRLPDGISGPIDDINFSPLLGCIGSTCAEDGNGPSAIRGRSAIEDLLFDKVKLSDVGFVEAYNNCTGGQEVRDLLCVQSFNGIKVLPPVLSESQISGYTTGATAAAMFPPWSAAAGVPFSLSVQYRINGLGVTMNVLSENQKMIASAFNNALGAIQDGFDATNSALGKIQSVVNANAEALNNLLNQLSNRFGAISASLQEILTRLEAVEAKAQIDRLINGRLTALNAYISKQLSDSTLIKVSAAQAIEKVNECVKSQTTRINFCGNGNHILSLVQNAPYGLYFIHFSYVPISFTTANVSPGLCISGDRGLAPKAGYFVQDDGEWKFTGSSYYYPEPITDKNSVIMSSCAVNYTKAPEVFLNTSIPNPPDFKEELDKWFKNQTSIAPDLSLDFEKLNVT
notes: also called MHV S-e; recombinant MHV S-e; not shown: GCN4 trimerization tag, C-terminal, kept; His6, C-terminal, kept

Experiments:
[1] = target: MHV spike ectodomain (S-e), strain A59 (mouse hepatitis coronavirus (MHV), strain A59) (UniProt P11224)
[2] = target: MHV spike ectodomain (S-e), strain A59 (mouse hepatitis coronavirus (MHV), strain A59) (UniProt P11224); assay: cryo-EM structure
cryo-EM structure = target: the molecule itself; assay: cryo-EM structure

| Molecule | negative-stain EM: share of S-e molecules in the post-fusion conformation after high concentration of trypsin with CEACAM1a (11.75% without CEACAM1a) [1] [%] | stoichiometry N (CEACAM1a molecules per S-e trimer) [2] | stoichiometry N (cryo-EM structure) |
| --- | --- | --- | --- |
| Mouse CEACAM1a ectodomain (D1-D4), C-terminal His6 tag (receptor) | 50.9 | 3 |  |
| B1 |  |  | 3 |

— article PMC7082060, “Structure of mouse coronavirus spike protein complexed with receptor reveals mechanism for viral entry” (PLoS Pathogens, 2020)
